Columns and labels:
[1] = molecular target: PDCoV S1 protein (porcine deltacoronavirus (PDCoV)); assay: ELISA
[2] = molecular target: PDCoV S2 protein (porcine deltacoronavirus (PDCoV)); assay: ELISA

“Griffithsin (from UniProt P84801 1-121) (natural protein)” gave an OD450 reached in ELISA [1] of 3.68 OD450 and an OD450 reached in ELISA [2] of 1.93 OD450.

— publication PMC8660055
